± gives the uncertainty stated by the source.
Assay: self-splicing fitness, log relative to wild type (ln ratio); higher = more splicing; Tetrahymena group I intron in knt gene, E. coli kanamycin selection, DiMSum; sequences stand for … in CUCUCU…GGAGGGAAAAGUUAUCAGGCAUGCACCUGGUAGCUAGUCUUUAAACCAAUAGAUUGCAUCGGUUUAAAAGGCAAGACCGUCAAAUUGCGGGAAAGGGGUCAACAGCCGUUCAGUACCAAGUCUCAGGGGAAACUUUGAGAUGGCCUUGCAAAGGGUAUGGUAAUAAGCUGACGGACAUGGUCCUAACCACGCAGCCAAGUCCUAAGUCAACAGAUCUUCUGUUGAUAUGGAUGCAGUUCACAGACUAAAUGUCGGUCGGGGAAGAUGUAUUCUUCUCAUAAGAUAUAGUCGGACCUCUCCUUAAUGGGAGCUAGCGGAUGAAGUGAUGCAACACUGGAGCCGCUGGGAACUAAUUUGUAUGCGAAAGUAUAUUGAUUAGUUUUGGAGUACUCGUGGUCG
Method in brief: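 Six replicate transformations of E. coli BL21(DE3) with a pET-22b(+) library were grown overnight at 37°C or 30°C. The library randomised all eight P1ex-region intron nucleotides, the intron lying in the knt kanamycin-resistance gene, and plates were LB agar with or without 25 μg/mL kanamycin plus 100 μg/mL carbenicillin, 50 μM IPTG and 0.2% rhamnose. Pooled colonies were amplicon-sequenced on an Illumina HiSeq 2500, and fitness is the DiMSum error-weighted combination of wild-type-normalised replicate fold changes, kanamycin versus none.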

Row | Sequence | self-splicing fitness (ln) (30 °C) | self-splicing fitness (ln) (37 °C)
1 | GUGAAGCAAUAUUACGGUCU | 0.172 ± 0.098 | 0.824 ± 0.096
2 | AUGAAGCAAUAUUACGAGCA | -0.665 ± 0.084 | -0.299 ± 0.083
3 | UCCCAGCAAUAUUACGUUUG | -3.67 ± 0.11 | -2.91 ± 0.15
4 | GCUAAGCAAUAUUACGGCGU | -0.935 ± 0.068 | -0.141 ± 0.091
5 | AAAUAGCAAUAUUACGGCUA | -0.705 ± 0.12 | -0.0895 ± 0.13
6 | GGCGAGCAAUAUUACGCUAC | -1.38 ± 0.22 | 1.89 ± 0.48
7 | AGGGAGCAAUAUUACGUUCA | -1.31 ± 0.18 | -1.49 ± 0.19
8 | CAAGAGCAAUAUUACGUGAG | -1.44 ± 0.087 | -0.683 ± 0.11
9 | GUUAAGCAAUAUUACGUAAC | -3.15 ± 0.44 | –
10 | UGCCAGCAAUAUUACGAUUG | -1.63 ± 0.078 | -0.196 ± 0.086
11 | AUCUAGCAAUAUUACGACUA | -0.918 ± 0.2 | -0.511 ± 0.16
12 | UGGUAGCAAUAUUACGCACA | -0.0584 ± 0.068 | 0.436 ± 0.074
13 | GCCUAGCAAUAUUACGCUAG | – | -2.47 ± 0.3
14 | GUUUAGCAAUAUUACGCGCU | -1.52 ± 0.29 | -0.397 ± 0.44
15 | GAAGAGCAAUAUUACGGACA | -1.14 ± 0.24 | 0.342 ± 0.24
16 | UUGGAGCAAUAUUACGGGAC | -4 ± 0.48 | -0.322 ± 0.34
17 | UGAAAGCAAUAUUACGCGGG | -2.8 ± 0.13 | -0.83 ± 0.11
18 | UGCAAGCAAUAUUACGGGAA | -2.94 ± 0.16 | -1.33 ± 0.12
19 | GAUGAGCAAUAUUACGAUCA | -2.17 ± 0.24 | -1.31 ± 0.21
20 | CGCAAGCAAUAUUACGUUGU | -3.69 ± 0.11 | -2.41 ± 0.12
21 | GCAAAGCAAUAUUACGCUCU | -1.27 ± 0.075 | -0.565 ± 0.097
22 | AUAAAGCAAUAUUACGAAAU | -0.905 ± 0.067 | -0.451 ± 0.098
23 | GGACAGCAAUAUUACGUCGA | 0.00434 ± 0.082 | 0.755 ± 0.12
24 | CAGUAGCAAUAUUACGCAGU | -3.52 ± 0.34 | -2.33 ± 0.22
25 | UGGCAGCAAUAUUACGUCGG | -0.425 ± 0.097 | -0.268 ± 0.13

Row | Sequence | self-splicing fitness (ln) (30 °C) | self-splicing fitness (ln) (37 °C)
26 | UUAGAGCAAUAUUACGGGUG | -3.1 ± 0.33 | -0.89 ± 0.2
27 | GAUCAGCAAUAUUACGUCAU | -1.53 ± 0.094 | -0.393 ± 0.1
28 | CACGAGCAAUAUUACGGCUU | -3.77 ± 0.24 | -3.16 ± 0.29
29 | CUAUAGCAAUAUUACGCCGG | -1.65 ± 0.21 | -0.422 ± 0.25
30 | CUAUAGCAAUAUUACGUGAU | -1.33 ± 0.066 | -0.295 ± 0.1
31 | UUGGAGCAAUAUUACGAAAC | – | -2.22 ± 0.37
32 | CCGCAGCAAUAUUACGUUUU | -3.13 ± 0.13 | -3.26 ± 0.2
33 | AGAAAGCAAUAUUACGGGUA | -1.32 ± 0.092 | -1.01 ± 0.095
34 | CGUGAGCAAUAUUACGACCG | -3.79 ± 0.33 | -1.39 ± 0.27
35 | ACUGAGCAAUAUUACGUGGG | -3.55 ± 0.21 | -2.28 ± 0.16
36 | GUCGAGCAAUAUUACGAUGU | -0.956 ± 0.059 | -0.601 ± 0.084
37 | AGCAAGCAAUAUUACGUCAU | -1.5 ± 0.078 | -1.23 ± 0.084
38 | AGAGAGCAAUAUUACGUAAA | -3.76 ± 0.31 | -3.12 ± 0.31
39 | AAACAGCAAUAUUACGUGUU | -4.29 ± 0.15 | -2.24 ± 0.11
40 | AGUCAGCAAUAUUACGAUUG | -1.38 ± 0.11 | -0.258 ± 0.15
41 | GCUGAGCAAUAUUACGCCCG | -2.34 ± 0.27 | -0.207 ± 0.42
42 | GAUAAGCAAUAUUACGAUGG | -3.06 ± 0.31 | -0.54 ± 0.21
43 | CGUUAGCAAUAUUACGAAGC | -2.28 ± 0.43 | –
44 | CGCAAGCAAUAUUACGGCGC | -2.37 ± 0.12 | -1.73 ± 0.18
45 | CAACAGCAAUAUUACGGGCC | -5.11 ± 0.46 | -1.48 ± 0.14
46 | CGCUAGCAAUAUUACGUGCA | -0.672 ± 0.095 | 0.116 ± 0.11
47 | GCCAAGCAAUAUUACGGGUG | -0.544 ± 0.049 | -0.591 ± 0.057
48 | GAUGAGCAAUAUUACGUUAG | -3.42 ± 0.24 | -1.81 ± 0.23
49 | CCGGAGCAAUAUUACGCUUC | -2.55 ± 0.24 | -0.412 ± 0.19
50 | AAAAAGCAAUAUUACGAGAA | -2.33 ± 0.33 | -0.686 ± 0.27

Row | Sequence | self-splicing fitness (ln) (30 °C) | self-splicing fitness (ln) (37 °C)
51 | GGAUAGCAAUAUUACGCGUG | -1.49 ± 0.087 | -0.118 ± 0.08
52 | GAGAAGCAAUAUUACGGCAC | -1.28 ± 0.083 | -0.111 ± 0.15
53 | UUUCAGCAAUAUUACGCAUC | -2.79 ± 0.14 | -0.623 ± 0.11
54 | GUUCAGCAAUAUUACGCAAC | -2.96 ± 0.22 | -1.48 ± 0.21
55 | AAUGAGCAAUAUUACGGCUA | -2.14 ± 0.24 | -0.372 ± 0.16
56 | GCAGAGCAAUAUUACGUAGG | -2.17 ± 0.11 | -1.7 ± 0.14
57 | GCCAAGCAAUAUUACGUGUA | -1.41 ± 0.068 | -0.64 ± 0.062
58 | GAGGAGCAAUAUUACGCGUC | – | -1.75 ± 0.38
59 | AUGUAGCAAUAUUACGUCAC | – | -2.81 ± 0.47
60 | UCACAGCAAUAUUACGUUGG | -2.84 ± 0.11 | -2.81 ± 0.18
61 | UUGGAGCAAUAUUACGGUGG | -3.06 ± 0.16 | -3.08 ± 0.23
62 | AGCGAGCAAUAUUACGUACU | -0.777 ± 0.088 | -0.674 ± 0.092
63 | GCAUAGCAAUAUUACGCGUA | -1.43 ± 0.13 | -0.403 ± 0.12
64 | CAGGAGCAAUAUUACGUGCA | -3.17 ± 0.21 | -2.6 ± 0.34
65 | AAUCAGCAAUAUUACGAUGA | 0.103 ± 0.059 | 0.0645 ± 0.083
66 | UUACAGCAAUAUUACGAUCC | -3.16 ± 0.13 | -2.28 ± 0.16
67 | CGGCAGCAAUAUUACGCGCU | -4.1 ± 0.25 | -1.99 ± 0.25
68 | UUUAAGCAAUAUUACGCGAC | -2.4 ± 0.18 | -2.75 ± 0.22
69 | GACGAGCAAUAUUACGCAGG | -2.39 ± 0.2 | -1.6 ± 0.26
70 | UACAAGCAAUAUUACGCAAC | – | -2.36 ± 0.3
71 | CCGAAGCAAUAUUACGGCUG | -1.53 ± 0.092 | -0.38 ± 0.11
72 | GCAUAGCAAUAUUACGUUCC | – | -2.25 ± 0.31
73 | GCUAAGCAAUAUUACGCAAU | -1.55 ± 0.17 | -1.75 ± 0.15
74 | CCGUAGCAAUAUUACGUCGU | -3.2 ± 0.18 | -1.25 ± 0.16
75 | CUCUAGCAAUAUUACGUGCU | -2.48 ± 0.3 | -2.38 ± 0.27

Row | Sequence | self-splicing fitness (ln) (30 °C) | self-splicing fitness (ln) (37 °C)
76 | ACUCAGCAAUAUUACGGACA | -1.02 ± 0.1 | -1.06 ± 0.12
77 | AAAAAGCAAUAUUACGUAGC | -3.26 ± 0.15 | -1.64 ± 0.12
78 | CCUAAGCAAUAUUACGUUGG | -3.45 ± 0.27 | -2.96 ± 0.24
79 | GUAUAGCAAUAUUACGUGCU | -2.77 ± 0.16 | -1.91 ± 0.22
80 | CUACAGCAAUAUUACGAACG | 0.241 ± 0.11 | 0.6 ± 0.14
81 | CGAAAGCAAUAUUACGAUCG | -3.41 ± 0.43 | -1.34 ± 0.29
82 | CAGUAGCAAUAUUACGGUCG | -0.204 ± 0.093 | 0.084 ± 0.1
83 | CACUAGCAAUAUUACGUCGG | -1.25 ± 0.082 | 0.0907 ± 0.1
84 | AGAAAGCAAUAUUACGUUAU | -2.29 ± 0.099 | -1.58 ± 0.13
85 | GGAUAGCAAUAUUACGACAU | -0.425 ± 0.014 | -0.0181 ± 0.034
86 | GGUUAGCAAUAUUACGCAGU | -1.5 ± 0.27 | -1.67 ± 0.3
87 | CGCAAGCAAUAUUACGCGUA | -3.47 ± 0.15 | -2.55 ± 0.12
88 | CCGAAGCAAUAUUACGGUUA | – | -2.08 ± 0.24
89 | UUAUAGCAAUAUUACGCUCU | -2.68 ± 0.37 | -0.705 ± 0.46
90 | AGGGAGCAAUAUUACGUAUC | -2.16 ± 0.25 | –
91 | AGCGAGCAAUAUUACGACGA | -1.13 ± 0.22 | -2.2 ± 0.31
92 | CAGGAGCAAUAUUACGUCCA | -2.02 ± 0.16 | -1.08 ± 0.24
93 | UCGGAGCAAUAUUACGGGUU | -2.86 ± 0.41 | –
94 | AGAAAGCAAUAUUACGGGAG | -2.56 ± 0.097 | -1.97 ± 0.12
95 | UUAGAGCAAUAUUACGAUCC | -2.97 ± 0.41 | –
96 | CUGUAGCAAUAUUACGUUAU | -3.21 ± 0.22 | -2.83 ± 0.23
97 | UGCUAGCAAUAUUACGCCUA | -0.454 ± 0.15 | -0.0492 ± 0.15
98 | CCUCAGCAAUAUUACGCAGG | -3.84 ± 0.25 | -2.5 ± 0.3
99 | GGAAAGCAAUAUUACGCUUC | -2.84 ± 0.3 | –

Reference: the supplement of paper PMC7877785
